Measured values: IntAct's records for PubMed 19691494

B1: G-protein coupled receptor 15 (Pan troglodytes (Chimpanzee)), Q9BG77 (parent)
chain: MDPEETSVYLDYYYATSPNSDIRETHSHVPYTSVFLPVFYTAVFLTGVLGNLVLMGALHFKPGSRRLIDIFIINLAASDFIFLVTLPLWVDKEASLGLWRTGSFLCKGSSYMISVNMHCSVLLLTCMSVDRYLAIVWPVVSRKFRRTDCAYVVCASIWFISCLLGLPTLLSRELTLIDDKPYCAEKKATPIKLIWSLVALIFTFFVPLLSIVTCYCCIARKLCAHYQQSGKHNKKLKKSIKIIFIVVAAFLVSWLPFNTFKFLAIVSGLRQEHYLPSAILQLGMEVSGPLAFANSCVNPFIYYIFDSYIRRAIVHCLCPCLKNYDFGSSTETSDSHLTKALSTFIHAEDFARRRKRSVSL

Variants of: B1
Conditions: with 1433b_human YWHAB
In the case of S359A, the “effect of a mutation on the interaction” value is reported as “disrupting interaction”.
